Assay results as given in the supplement of paper PMC10065799, “High-throughput profiling of sequence recognition by tyrosine kinases and SH2 domains using bacterial peptide display” (eLife, 2023).
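Wherever SH2 binding enrichment of the phosphorylated peptide, bacterial display is given: peptide library displayed on the E. coli surface as eCPX fusions, selected cells deep-sequenced, score is each peptide's frequency after selection divided by its frequency in the input.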
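Wherever phosphorylation enrichment, bacterial display is given: 11-residue human phosphosite peptides and single-mutation variants displayed on the E. coli surface, counted by deep sequencing, each peptide's frequency after selection divided by its frequency in the unselected input library; frequency after pTyr selection over input frequency; kinase dosed for 20-30% of maximal phosphorylation in three min.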

What follows are sequences tested on c-Src (assay: phosphorylation enrichment, bacterial display (enrichment ratio); higher = better substrate or ligand; peptides without Tyr show the background).
SVVVPYEPAEV [TP53_Y220_P223A] was tested, and the phosphorylation enrichment was 0.539.
MLEVPYVDHNS [F10_Y384_R387H] showed a phosphorylation enrichment of 0.506.
For LVIIKYLPEWT [PSEN1_Y240_F237I], the phosphorylation enrichment was 0.818.
AGLVQYFMEHH [PTPN11_Y80_E76G_YF] was tested, and the phosphorylation enrichment was 0.452.
Work on RELGEYPLAEF [ALDH1A3_Y492_A493P_YF] yielded a phosphorylation enrichment of 0.582.
In the case of LIHTKYPQLLP [AHCY_Y143], the phosphorylation enrichment is reported as 0.379.
MQMEEYRGRVE [BTNL2_Y91_W94R] was tested, and the phosphorylation enrichment was 0.437.
Work on EDEGLYMVRVP [MYOM3_Y343] yielded a phosphorylation enrichment of 3.41.
Work on FKGIVYSVSSD [DCX_Y70_A71S] yielded a phosphorylation enrichment of 0.722.
In the case of PLGVPYLDKPP [JMJD7_Y31_A28G], the phosphorylation enrichment is reported as 0.909.
In the case of QPAGNYSLSSV [ARFGAP3_Y473], the phosphorylation enrichment is reported as 0.798.
With CTNPQYLAAGS [RABL3_Y185_R184Q] the phosphorylation enrichment was 0.409.
Sequence RGDTVYTVNRM [KBTBD13_Y404] has a phosphorylation enrichment of 4.93.
FESPRYLQVRI [FANCA_Y488_H492R] was tested, and the phosphorylation enrichment was 0.437.
In the case of AHAGEYGAGAL [HBA1_Y25_E28G], the phosphorylation enrichment is reported as 0.489.
For FFRKFCNKSED [RYR1_Y4864_Y4864C], the phosphorylation enrichment was 0.442.
Sequence EPSVDYCVVKI [CAD_Y735] has a phosphorylation enrichment of 0.618.
In the case of SAQHHYESLQT [BIN1_Y157_R154Q], the phosphorylation enrichment is reported as 0.433.
Work on AAPAAHDAADT [GAMT_Y27_Y27H] yielded a phosphorylation enrichment of 0.32.
SHKELYKWFTS [DYNC1H1_Y3051_E3048K] showed a phosphorylation enrichment of 0.576.
CFTRQYTLPPG [HSPB1_Y142_K141Q] gave a phosphorylation enrichment of 0.361.
LFCVHYFHRTF [SRD5A2_Y91] gave a phosphorylation enrichment of 1.14.
For SSENPCATIKD [MEGF10_Y1030_Y1030C], the phosphorylation enrichment was 0.465.
ACRSLYGGFVE [MVD_Y164] was tested, and the phosphorylation enrichment was 7.11.
Work on SKAFAYVHFDS [PABPC5_Y149_G146A_YF] yielded a phosphorylation enrichment of 0.424.
In the case of SVVVPYEPLEV [TP53_Y220_P223L], the phosphorylation enrichment is reported as 0.46.
Work on VAFLYYKSIGP [ADGRL4_Y302_V300L] yielded a phosphorylation enrichment of 0.392.
With CTTIHYNFMCK [TP53_Y234_N239K_YF] the phosphorylation enrichment was 0.413.
With TKVVHYRKWIK [KLK2_Y249] the phosphorylation enrichment was 0.595.
Work on RKRQFYLYKGK [RSPO4_Y112_C107R] yielded a phosphorylation enrichment of 0.44.
In the case of EALSLYTKLMN [STAM_Y371], the phosphorylation enrichment is reported as 0.551.
Work on GQSKGYRPKLY [SIPA1L3_Y1376] yielded a phosphorylation enrichment of 0.387.
Sequence WNDPDYMDSRR [GAA_Y407_L405P] has a phosphorylation enrichment of 0.453.

Each sequence was assayed against Grb2 SH2 (UniProt P62993) (assay: SH2 binding enrichment of the phosphorylated peptide, bacterial display (enrichment ratio); higher = better substrate or ligand; peptides without Tyr show the background).
Grb2 SH2, sequence (P62993 whole entry, looked up): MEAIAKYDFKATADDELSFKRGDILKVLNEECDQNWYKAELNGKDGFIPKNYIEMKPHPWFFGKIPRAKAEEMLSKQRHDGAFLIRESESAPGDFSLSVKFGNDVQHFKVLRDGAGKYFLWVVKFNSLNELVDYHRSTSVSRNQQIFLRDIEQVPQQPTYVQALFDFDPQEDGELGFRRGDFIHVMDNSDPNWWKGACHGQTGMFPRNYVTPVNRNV
SVVVPYEPAEV [TP53_Y220_P223A] showed an SH2 binding enrichment of 0.81.
Work on MLEVPYVDHNS [F10_Y384_R387H] yielded an SH2 binding enrichment of 0.707.
LVIIKYLPEWT [PSEN1_Y240_F237I] gave an SH2 binding enrichment of 1.66.
In the case of AGLVQYFMEHH [PTPN11_Y80_E76G_YF], the SH2 binding enrichment is reported as 0.844.
Sequence RELGEYPLAEF [ALDH1A3_Y492_A493P_YF] has an SH2 binding enrichment of 0.763.
With LIHTKYPQLLP [AHCY_Y143] the SH2 binding enrichment was 0.54.
In the case of MQMEEYRGRVE [BTNL2_Y91_W94R], the SH2 binding enrichment is reported as 0.785.
EDEGLYMVRVP [MYOM3_Y343] showed an SH2 binding enrichment of 0.776.
Sequence FKGIVYSVSSD [DCX_Y70_A71S] has an SH2 binding enrichment of 0.718.
In the case of PLGVPYLDKPP [JMJD7_Y31_A28G], the SH2 binding enrichment is reported as 0.862.
QPAGNYSLSSV [ARFGAP3_Y473] gave an SH2 binding enrichment of 0.812.
CTNPQYLAAGS [RABL3_Y185_R184Q] gave an SH2 binding enrichment of 0.885.
RGDTVYTVNRM [KBTBD13_Y404] was tested, and the SH2 binding enrichment was 1.09.
FESPRYLQVRI [FANCA_Y488_H492R] showed an SH2 binding enrichment of 0.763.
AHAGEYGAGAL [HBA1_Y25_E28G] gave an SH2 binding enrichment of 0.776.
In the case of FFRKFCNKSED [RYR1_Y4864_Y4864C], the SH2 binding enrichment is reported as 0.992.
Work on EPSVDYCVVKI [CAD_Y735] yielded an SH2 binding enrichment of 1.11.
In the case of SAQHHYESLQT [BIN1_Y157_R154Q], the SH2 binding enrichment is reported as 0.781.
AAPAAHDAADT [GAMT_Y27_Y27H] showed an SH2 binding enrichment of 1.
Sequence SHKELYKWFTS [DYNC1H1_Y3051_E3048K] has an SH2 binding enrichment of 1.02.
In the case of CFTRQYTLPPG [HSPB1_Y142_K141Q], the SH2 binding enrichment is reported as 0.773.
For LFCVHYFHRTF [SRD5A2_Y91], the SH2 binding enrichment was 1.3.
Sequence SSENPCATIKD [MEGF10_Y1030_Y1030C] has an SH2 binding enrichment of 0.795.
ACRSLYGGFVE [MVD_Y164] showed an SH2 binding enrichment of 0.751.
SKAFAYVHFDS [PABPC5_Y149_G146A_YF] gave an SH2 binding enrichment of 0.942.
SVVVPYEPLEV [TP53_Y220_P223L] gave an SH2 binding enrichment of 0.849.
With VAFLYYKSIGP [ADGRL4_Y302_V300L] the SH2 binding enrichment was 0.771.
CTTIHYNFMCK [TP53_Y234_N239K_YF] gave an SH2 binding enrichment of 1.4.
Sequence TKVVHYRKWIK [KLK2_Y249] has an SH2 binding enrichment of 1.12.
For RKRQFYLYKGK [RSPO4_Y112_C107R], the SH2 binding enrichment was 0.965.
In the case of EALSLYTKLMN [STAM_Y371], the SH2 binding enrichment is reported as 0.713.
Sequence GQSKGYRPKLY [SIPA1L3_Y1376] has an SH2 binding enrichment of 0.662.
Sequence WNDPDYMDSRR [GAA_Y407_L405P] has an SH2 binding enrichment of 0.679.

The sequences below were run against SHP2-C SH2 in the same assay as above.
SVVVPYEPAEV [TP53_Y220_P223A] showed an SH2 binding enrichment of 0.787.
In the case of MLEVPYVDHNS [F10_Y384_R387H], the SH2 binding enrichment is reported as 0.547.
With LVIIKYLPEWT [PSEN1_Y240_F237I] the SH2 binding enrichment was 1.28.
Sequence AGLVQYFMEHH [PTPN11_Y80_E76G_YF] has an SH2 binding enrichment of 0.845.
RELGEYPLAEF [ALDH1A3_Y492_A493P_YF] was tested, and the SH2 binding enrichment was 0.617.
LIHTKYPQLLP [AHCY_Y143] was tested, and the SH2 binding enrichment was 0.725.
MQMEEYRGRVE [BTNL2_Y91_W94R] gave an SH2 binding enrichment of 0.871.
Sequence EDEGLYMVRVP [MYOM3_Y343] has an SH2 binding enrichment of 0.628.
In the case of FKGIVYSVSSD [DCX_Y70_A71S], the SH2 binding enrichment is reported as 0.695.
Sequence PLGVPYLDKPP [JMJD7_Y31_A28G] has an SH2 binding enrichment of 0.645.
QPAGNYSLSSV [ARFGAP3_Y473] gave an SH2 binding enrichment of 1.
CTNPQYLAAGS [RABL3_Y185_R184Q] showed an SH2 binding enrichment of 0.721.
Work on RGDTVYTVNRM [KBTBD13_Y404] yielded an SH2 binding enrichment of 0.655.
For FESPRYLQVRI [FANCA_Y488_H492R], the SH2 binding enrichment was 0.964.
AHAGEYGAGAL [HBA1_Y25_E28G] showed an SH2 binding enrichment of 0.589.
FFRKFCNKSED [RYR1_Y4864_Y4864C] was tested, and the SH2 binding enrichment was 0.75.
EPSVDYCVVKI [CAD_Y735] showed an SH2 binding enrichment of 1.22.
For SAQHHYESLQT [BIN1_Y157_R154Q], the SH2 binding enrichment was 0.903.
In the case of AAPAAHDAADT [GAMT_Y27_Y27H], the SH2 binding enrichment is reported as 0.8.
With SHKELYKWFTS [DYNC1H1_Y3051_E3048K] the SH2 binding enrichment was 1.05.
Sequence CFTRQYTLPPG [HSPB1_Y142_K141Q] has an SH2 binding enrichment of 0.794.
Sequence LFCVHYFHRTF [SRD5A2_Y91] has an SH2 binding enrichment of 1.08.
SSENPCATIKD [MEGF10_Y1030_Y1030C] was tested, and the SH2 binding enrichment was 0.806.
ACRSLYGGFVE [MVD_Y164] showed an SH2 binding enrichment of 0.808.
SKAFAYVHFDS [PABPC5_Y149_G146A_YF] showed an SH2 binding enrichment of 0.913.
For SVVVPYEPLEV [TP53_Y220_P223L], the SH2 binding enrichment was 0.598.
With VAFLYYKSIGP [ADGRL4_Y302_V300L] the SH2 binding enrichment was 0.633.
CTTIHYNFMCK [TP53_Y234_N239K_YF] showed an SH2 binding enrichment of 2.05.
TKVVHYRKWIK [KLK2_Y249] showed an SH2 binding enrichment of 0.912.
For RKRQFYLYKGK [RSPO4_Y112_C107R], the SH2 binding enrichment was 0.428.
For EALSLYTKLMN [STAM_Y371], the SH2 binding enrichment was 1.41.
Work on GQSKGYRPKLY [SIPA1L3_Y1376] yielded an SH2 binding enrichment of 0.824.
WNDPDYMDSRR [GAA_Y407_L405P] showed an SH2 binding enrichment of 0.581.

The sequences below were run against c-Src SH2 in the same assay as above.
With SVVVPYEPAEV [TP53_Y220_P223A] the SH2 binding enrichment was 1.11.
MLEVPYVDHNS [F10_Y384_R387H] showed an SH2 binding enrichment of 0.407.
LVIIKYLPEWT [PSEN1_Y240_F237I] showed an SH2 binding enrichment of 1.15.
AGLVQYFMEHH [PTPN11_Y80_E76G_YF] showed an SH2 binding enrichment of 0.599.
For RELGEYPLAEF [ALDH1A3_Y492_A493P_YF], the SH2 binding enrichment was 2.13.
For LIHTKYPQLLP [AHCY_Y143], the SH2 binding enrichment was 0.42.
In the case of MQMEEYRGRVE [BTNL2_Y91_W94R], the SH2 binding enrichment is reported as 0.408.
EDEGLYMVRVP [MYOM3_Y343] gave an SH2 binding enrichment of 0.472.
Sequence FKGIVYSVSSD [DCX_Y70_A71S] has an SH2 binding enrichment of 0.456.
Sequence PLGVPYLDKPP [JMJD7_Y31_A28G] has an SH2 binding enrichment of 0.46.
In the case of QPAGNYSLSSV [ARFGAP3_Y473], the SH2 binding enrichment is reported as 0.486.
With CTNPQYLAAGS [RABL3_Y185_R184Q] the SH2 binding enrichment was 0.589.
For RGDTVYTVNRM [KBTBD13_Y404], the SH2 binding enrichment was 0.423.
FESPRYLQVRI [FANCA_Y488_H492R] gave an SH2 binding enrichment of 0.742.
In the case of AHAGEYGAGAL [HBA1_Y25_E28G], the SH2 binding enrichment is reported as 0.403.
FFRKFCNKSED [RYR1_Y4864_Y4864C] showed an SH2 binding enrichment of 0.513.
Work on EPSVDYCVVKI [CAD_Y735] yielded an SH2 binding enrichment of 0.684.
Sequence SAQHHYESLQT [BIN1_Y157_R154Q] has an SH2 binding enrichment of 36.4.
For AAPAAHDAADT [GAMT_Y27_Y27H], the SH2 binding enrichment was 0.478.
Work on SHKELYKWFTS [DYNC1H1_Y3051_E3048K] yielded an SH2 binding enrichment of 0.777.
CFTRQYTLPPG [HSPB1_Y142_K141Q] gave an SH2 binding enrichment of 0.523.
Work on LFCVHYFHRTF [SRD5A2_Y91] yielded an SH2 binding enrichment of 0.918.
SSENPCATIKD [MEGF10_Y1030_Y1030C] showed an SH2 binding enrichment of 0.541.
With ACRSLYGGFVE [MVD_Y164] the SH2 binding enrichment was 0.574.
Sequence SKAFAYVHFDS [PABPC5_Y149_G146A_YF] has an SH2 binding enrichment of 1.44.
With SVVVPYEPLEV [TP53_Y220_P223L] the SH2 binding enrichment was 2.45.
Work on VAFLYYKSIGP [ADGRL4_Y302_V300L] yielded an SH2 binding enrichment of 0.341.
CTTIHYNFMCK [TP53_Y234_N239K_YF] was tested, and the SH2 binding enrichment was 1.68.
TKVVHYRKWIK [KLK2_Y249] gave an SH2 binding enrichment of 0.558.
With RKRQFYLYKGK [RSPO4_Y112_C107R] the SH2 binding enrichment was 0.378.
With EALSLYTKLMN [STAM_Y371] the SH2 binding enrichment was 1.02.
GQSKGYRPKLY [SIPA1L3_Y1376] showed an SH2 binding enrichment of 0.531.
In the case of WNDPDYMDSRR [GAA_Y407_L405P], the SH2 binding enrichment is reported as 0.417.
